To fix the notation:
B1: GLS3000 H34W one-arm antibody (antibody, human IgG1, kappa, L234A L235A, N297A, name in Kabat numbering)
heavy: QVQLVESGGGVVQPGRSLRLSCAASGFTFSNAWMHWVRQAPGKGLEWVAQIKAKSNNYATYYAESVKGRFTISRDDSKNSLYLQMNSLKTEDTAVYYCRYVHYGAYYGVDAWGQGTTVTVSSASTKGPSVFPLAPSSKSTSGGTAALGCLVKDYFPEPVTVSWNSGALTSGVHTFPAVLQSSGLYSLSSVVTVPSSSLGTQTYICNVNHKPSNTKVDKKVEPKSCDKTHTCPPCPAPEAAGGPSVFLFPPKPKDTLMISRTPEVTCVVVDVSHEDPEVKFNWYVDGVEVHNAKTKPREEQYASTYRVVSVLTVLHQDWLNGKEYKCKVSNKALPAPIEKTISKAKGQPREPQVYTLPPSRCELTKNQVSLSCAVKGFYPSDIAVEWESNGQPENNYKTTPPVLDSDGSFFLVSKLTVDKSRWQQGNVFSCSVMHEALHNHYTQKSLSLSPDYKDDDDK
chain: EPKSSDKTHTCPPCPAPELLGGPSVFLFPPKPKDTLMISRTPEVTCVVVDVSHEDPEVKFNWYVDGVEVHNAKTKPREEQYNSTYRVVSVLTVLHQDWLNGKEYKCKVSNKALPAPIEKTISKAKGQPREPQVCTLPPSRDELTKNQVSLWCLVKGFYPSDIAVEWESNGQPENNYKTTPPVLDSDGSFFLYSKLTVDKSRWQQGNVFSCSVMHEALHNRYTQKSLSLSP
light: DIVMTQSPLSLPVTPGEPASISCRSSQSLVHSNRNTYLWWYQQKPGQAPRLLIYKVSNRFSGVPDRFSGSGSGTDFTLKISRVEAEDVGVYYCGQGTQVPYTFGQGTKLEIKRTVAAPSVFIFPPSDEQLKSGTASVVCLLNNFYPREAKVQWKVDNALQSGNSQESVTEQDSKDSTYSLSSTLTLSKADYEKHKVYACEVTHQGLSSPVTKSFNRGEC
B2: GLS3000 H34Y one-arm antibody (antibody, human IgG1, kappa, L234A L235A, N297A, name in Kabat numbering)
heavy: QVQLVESGGGVVQPGRSLRLSCAASGFTFSNAWMHWVRQAPGKGLEWVAQIKAKSNNYATYYAESVKGRFTISRDDSKNSLYLQMNSLKTEDTAVYYCRYVHYGAYYGVDAWGQGTTVTVSSASTKGPSVFPLAPSSKSTSGGTAALGCLVKDYFPEPVTVSWNSGALTSGVHTFPAVLQSSGLYSLSSVVTVPSSSLGTQTYICNVNHKPSNTKVDKKVEPKSCDKTHTCPPCPAPEAAGGPSVFLFPPKPKDTLMISRTPEVTCVVVDVSHEDPEVKFNWYVDGVEVHNAKTKPREEQYASTYRVVSVLTVLHQDWLNGKEYKCKVSNKALPAPIEKTISKAKGQPREPQVYTLPPSRCELTKNQVSLSCAVKGFYPSDIAVEWESNGQPENNYKTTPPVLDSDGSFFLVSKLTVDKSRWQQGNVFSCSVMHEALHNHYTQKSLSLSPDYKDDDDK
chain: EPKSSDKTHTCPPCPAPELLGGPSVFLFPPKPKDTLMISRTPEVTCVVVDVSHEDPEVKFNWYVDGVEVHNAKTKPREEQYNSTYRVVSVLTVLHQDWLNGKEYKCKVSNKALPAPIEKTISKAKGQPREPQVCTLPPSRDELTKNQVSLWCLVKGFYPSDIAVEWESNGQPENNYKTTPPVLDSDGSFFLYSKLTVDKSRWQQGNVFSCSVMHEALHNRYTQKSLSLSP
light: DIVMTQSPLSLPVTPGEPASISCRSSQSLVHSNRNTYLYWYQQKPGQAPRLLIYKVSNRFSGVPDRFSGSGSGTDFTLKISRVEAEDVGVYYCGQGTQVPYTFGQGTKLEIKRTVAAPSVFIFPPSDEQLKSGTASVVCLLNNFYPREAKVQWKVDNALQSGNSQESVTEQDSKDSTYSLSSTLTLSKADYEKHKVYACEVTHQGLSSPVTKSFNRGEC
B3: GLS3000 K50A one-arm antibody (antibody, human IgG1, kappa, L234A L235A, N297A, name in Kabat numbering)
heavy: QVQLVESGGGVVQPGRSLRLSCAASGFTFSNAWMHWVRQAPGKGLEWVAQIKAKSNNYATYYAESVKGRFTISRDDSKNSLYLQMNSLKTEDTAVYYCRYVHYGAYYGVDAWGQGTTVTVSSASTKGPSVFPLAPSSKSTSGGTAALGCLVKDYFPEPVTVSWNSGALTSGVHTFPAVLQSSGLYSLSSVVTVPSSSLGTQTYICNVNHKPSNTKVDKKVEPKSCDKTHTCPPCPAPEAAGGPSVFLFPPKPKDTLMISRTPEVTCVVVDVSHEDPEVKFNWYVDGVEVHNAKTKPREEQYASTYRVVSVLTVLHQDWLNGKEYKCKVSNKALPAPIEKTISKAKGQPREPQVYTLPPSRCELTKNQVSLSCAVKGFYPSDIAVEWESNGQPENNYKTTPPVLDSDGSFFLVSKLTVDKSRWQQGNVFSCSVMHEALHNHYTQKSLSLSPDYKDDDDK
chain: EPKSSDKTHTCPPCPAPELLGGPSVFLFPPKPKDTLMISRTPEVTCVVVDVSHEDPEVKFNWYVDGVEVHNAKTKPREEQYNSTYRVVSVLTVLHQDWLNGKEYKCKVSNKALPAPIEKTISKAKGQPREPQVCTLPPSRDELTKNQVSLWCLVKGFYPSDIAVEWESNGQPENNYKTTPPVLDSDGSFFLYSKLTVDKSRWQQGNVFSCSVMHEALHNRYTQKSLSLSP
light: DIVMTQSPLSLPVTPGEPASISCRSSQSLVHSNRNTYLHWYQQKPGQAPRLLIYAVSNRFSGVPDRFSGSGSGTDFTLKISRVEAEDVGVYYCGQGTQVPYTFGQGTKLEIKRTVAAPSVFIFPPSDEQLKSGTASVVCLLNNFYPREAKVQWKVDNALQSGNSQESVTEQDSKDSTYSLSSTLTLSKADYEKHKVYACEVTHQGLSSPVTKSFNRGEC
B4: GLS3000 K50D one-arm antibody (antibody, human IgG1, kappa, L234A L235A, N297A, name in Kabat numbering)
heavy: QVQLVESGGGVVQPGRSLRLSCAASGFTFSNAWMHWVRQAPGKGLEWVAQIKAKSNNYATYYAESVKGRFTISRDDSKNSLYLQMNSLKTEDTAVYYCRYVHYGAYYGVDAWGQGTTVTVSSASTKGPSVFPLAPSSKSTSGGTAALGCLVKDYFPEPVTVSWNSGALTSGVHTFPAVLQSSGLYSLSSVVTVPSSSLGTQTYICNVNHKPSNTKVDKKVEPKSCDKTHTCPPCPAPEAAGGPSVFLFPPKPKDTLMISRTPEVTCVVVDVSHEDPEVKFNWYVDGVEVHNAKTKPREEQYASTYRVVSVLTVLHQDWLNGKEYKCKVSNKALPAPIEKTISKAKGQPREPQVYTLPPSRCELTKNQVSLSCAVKGFYPSDIAVEWESNGQPENNYKTTPPVLDSDGSFFLVSKLTVDKSRWQQGNVFSCSVMHEALHNHYTQKSLSLSPDYKDDDDK
chain: EPKSSDKTHTCPPCPAPELLGGPSVFLFPPKPKDTLMISRTPEVTCVVVDVSHEDPEVKFNWYVDGVEVHNAKTKPREEQYNSTYRVVSVLTVLHQDWLNGKEYKCKVSNKALPAPIEKTISKAKGQPREPQVCTLPPSRDELTKNQVSLWCLVKGFYPSDIAVEWESNGQPENNYKTTPPVLDSDGSFFLYSKLTVDKSRWQQGNVFSCSVMHEALHNRYTQKSLSLSP
light: DIVMTQSPLSLPVTPGEPASISCRSSQSLVHSNRNTYLHWYQQKPGQAPRLLIYDVSNRFSGVPDRFSGSGSGTDFTLKISRVEAEDVGVYYCGQGTQVPYTFGQGTKLEIKRTVAAPSVFIFPPSDEQLKSGTASVVCLLNNFYPREAKVQWKVDNALQSGNSQESVTEQDSKDSTYSLSSTLTLSKADYEKHKVYACEVTHQGLSSPVTKSFNRGEC

The values below come from patent publication US20260049138A1 (Chugai, published 2026).

The target of the assay is T1, CD3ε homodimer protein (human, UniProt P07766 23-126, limits assumed).
T1 construct: also called CD3 (CD3ε)
T1 sequence (P07766 23-126 limits assumed): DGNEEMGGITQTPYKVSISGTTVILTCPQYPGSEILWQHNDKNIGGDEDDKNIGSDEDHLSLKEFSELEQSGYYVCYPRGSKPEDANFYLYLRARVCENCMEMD
The assay is described as follows: SPR Biacore T200, CD3ε homodimer on chip.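 Note: Light-chain single-residue variant antibodies injected over amine-coupled CD3ε homodimer on a CM4 chip at 25 °C, bound amount divided by that of the GLS3000-containing antibody.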
For the molecule B1, the “ratio of amount bound vs unaltered GLS3000” value (shortened to “ratio of amount bound”) was determined as 0.24. As to B2, the “ratio of amount bound” value turned out to be 0.59. Regarding B3, the “ratio of amount bound” value stood at 0.23. As for B4, the “ratio of amount bound” value was found to be 0.22.
